This is an account of results in article PMC5727187, “Insights into the structure and assembly of a bacterial cellulose secretion system” (Nature Communications, 2017).

Data set [1] deals with the molecule itself. Put plainly: negative-stain electron microscopy; Inner membrane subcomplex purified from BL21 (DE3) expressing bcs^HisRQA^HA-FLAGB-pCDF-Duet; reconstruction at 21.1 Å.
Data set [2] deals with the molecule itself. Put plainly: negative-stain electron microscopy; Bcs macrocomplex purified from E. coli 1094 bcsA^HA-FLAG 2K7, GraFix cross-linked in the gradient; non-symmetrized reconstruction at 16.7 Å.

B1: BcsB (recombinant, BL21) (natural protein, E. coli 1094, UniProt P37652 26-779, looked up)
chain: TPATQPLINAEPAVAAQTEQNPQVGQVMPGVQGADAPVVAQNGPSRDVKLTFAQIAPPPGSMVLRGINPNGSIEFGMRSDEVVTKAMLNLEYTPSPSLLPVQSQLKVYLNDELMGVLPVTKEQLGKKTLAQMPINPLFISDFNRVRLEFVGHYQDVCEKPASTTLWLDVGRSSGLDLTYQTLNVKNDLSHFPVPFFDPSDNRTNTLPMVFAGAPDVGLQQASAIVASWFGSRSGWRGQNFPVLYNQLPDRNAIVFATNDKRPDFLRDHPAVKAPVIEMINHPQNPYVKLLVVFGRDDKDLLQAAKGIAQGNILFRGESVVVNEVKPLLPRKPYDAPNWVRTDRPVTFGELKTYEEQLQSSGLEPAAINVSLNLPPDLYLMRSTGIDMDINYRYTMPPVKDSSRMDISLNNQFLQSFNLSSKQEANRLLLRIPVLQGLLDGKTDVSIPALKLGATNQLRFDFEYMNPMPGGSVDNCITFQPVQNHVVIGDDSTIDFSKYYHFIPMPDLRAFANAGFPFSRMADLSQTITVMPKAPNEAQMETLLNTVGFIGAQTGFPAINLTVTDDGSTIQGKDADIMIIGGIPDKLKDDKQIDLLVQATESWVKTPMRQTPFPGIVPDESDRAAETRSTLTSSGAMAAVIGFQSPYNDQRSVIALLADSPRGYEMLNDAVNDSGKRATMFGSVAVIRESGINSLRVGDVYYVGHLPWFERVWYALANHPILLAVLAAISVILLAWVLWRLLRIISRRRLNPDNE
notes: BcsB, amplified from genomic DNA of E. coli 1094 bcsA^HA-FLAG; source: E. coli BL21 (DE3), bcs^HisRQA^HA-FLAGB-pCDF-Duet, co-expressed, detergent-solubilised membranes; purified complex for EM
By stoichiometry N is commonly meant a count of units in the complex or per binding partner. In the case of B1, the “stoichiometry N” value in data set [1] is 6.

B2: BcsB (natural protein, E. coli 1094, UniProt P37652 26-779, looked up)
chain: TPATQPLINAEPAVAAQTEQNPQVGQVMPGVQGADAPVVAQNGPSRDVKLTFAQIAPPPGSMVLRGINPNGSIEFGMRSDEVVTKAMLNLEYTPSPSLLPVQSQLKVYLNDELMGVLPVTKEQLGKKTLAQMPINPLFISDFNRVRLEFVGHYQDVCEKPASTTLWLDVGRSSGLDLTYQTLNVKNDLSHFPVPFFDPSDNRTNTLPMVFAGAPDVGLQQASAIVASWFGSRSGWRGQNFPVLYNQLPDRNAIVFATNDKRPDFLRDHPAVKAPVIEMINHPQNPYVKLLVVFGRDDKDLLQAAKGIAQGNILFRGESVVVNEVKPLLPRKPYDAPNWVRTDRPVTFGELKTYEEQLQSSGLEPAAINVSLNLPPDLYLMRSTGIDMDINYRYTMPPVKDSSRMDISLNNQFLQSFNLSSKQEANRLLLRIPVLQGLLDGKTDVSIPALKLGATNQLRFDFEYMNPMPGGSVDNCITFQPVQNHVVIGDDSTIDFSKYYHFIPMPDLRAFANAGFPFSRMADLSQTITVMPKAPNEAQMETLLNTVGFIGAQTGFPAINLTVTDDGSTIQGKDADIMIIGGIPDKLKDDKQIDLLVQATESWVKTPMRQTPFPGIVPDESDRAAETRSTLTSSGAMAAVIGFQSPYNDQRSVIALLADSPRGYEMLNDAVNDSGKRATMFGSVAVIRESGINSLRVGDVYYVGHLPWFERVWYALANHPILLAVLAAISVILLAWVLWRLLRIISRRRLNPDNE
notes: BcsB, E. coli strain 1094, untagged; source: E. coli 1094 bcsA^HA-FLAG 2K7 strain (bcs operons overexpressed from the chromosome), solubilised membranes; purified complex for EM
With B2, the “stoichiometry N” value in data set [2] came out at 6.
